Data on three molecules can be found in patent publication US20160304570A1.

Assay in all cases: cell-based or functional assay
Assay [1] concerns the target human Nav1.7 voltage-gated sodium channel (human) (UniProt Q15858).
The target of assay [2] is human Nav1.5 voltage-gated sodium channel (human) (UniProt Q14524).
For assay [3], the target named is human Nav1.3 voltage-gated sodium channel (human) (UniProt Q9NY46).
Assay [4] addresses human Nav1.4 voltage-gated sodium channel (human) (UniProt P35499).
The target in assay [5] is human voltage-gated sodium channel Nav1.7 (human) (UniProt Q15858).
Assay [6] addresses human voltage-gated sodium channel Nav1.4 (human) (UniProt P35499).
Assay [7] deals with human voltage-gated sodium channel Nav1.5 (human) (UniProt Q14524).

Non-standard residues stand in square brackets, D forms with d. No end group written: not given here. 4‑Pen = not defined here; Pra = C#CC[C@H](N)C(=O)O; Abu = CC[C@H](N)C(=O)O

human Nav1.4 voltage-gated sodium channel (human), sequence (P35499 whole entry): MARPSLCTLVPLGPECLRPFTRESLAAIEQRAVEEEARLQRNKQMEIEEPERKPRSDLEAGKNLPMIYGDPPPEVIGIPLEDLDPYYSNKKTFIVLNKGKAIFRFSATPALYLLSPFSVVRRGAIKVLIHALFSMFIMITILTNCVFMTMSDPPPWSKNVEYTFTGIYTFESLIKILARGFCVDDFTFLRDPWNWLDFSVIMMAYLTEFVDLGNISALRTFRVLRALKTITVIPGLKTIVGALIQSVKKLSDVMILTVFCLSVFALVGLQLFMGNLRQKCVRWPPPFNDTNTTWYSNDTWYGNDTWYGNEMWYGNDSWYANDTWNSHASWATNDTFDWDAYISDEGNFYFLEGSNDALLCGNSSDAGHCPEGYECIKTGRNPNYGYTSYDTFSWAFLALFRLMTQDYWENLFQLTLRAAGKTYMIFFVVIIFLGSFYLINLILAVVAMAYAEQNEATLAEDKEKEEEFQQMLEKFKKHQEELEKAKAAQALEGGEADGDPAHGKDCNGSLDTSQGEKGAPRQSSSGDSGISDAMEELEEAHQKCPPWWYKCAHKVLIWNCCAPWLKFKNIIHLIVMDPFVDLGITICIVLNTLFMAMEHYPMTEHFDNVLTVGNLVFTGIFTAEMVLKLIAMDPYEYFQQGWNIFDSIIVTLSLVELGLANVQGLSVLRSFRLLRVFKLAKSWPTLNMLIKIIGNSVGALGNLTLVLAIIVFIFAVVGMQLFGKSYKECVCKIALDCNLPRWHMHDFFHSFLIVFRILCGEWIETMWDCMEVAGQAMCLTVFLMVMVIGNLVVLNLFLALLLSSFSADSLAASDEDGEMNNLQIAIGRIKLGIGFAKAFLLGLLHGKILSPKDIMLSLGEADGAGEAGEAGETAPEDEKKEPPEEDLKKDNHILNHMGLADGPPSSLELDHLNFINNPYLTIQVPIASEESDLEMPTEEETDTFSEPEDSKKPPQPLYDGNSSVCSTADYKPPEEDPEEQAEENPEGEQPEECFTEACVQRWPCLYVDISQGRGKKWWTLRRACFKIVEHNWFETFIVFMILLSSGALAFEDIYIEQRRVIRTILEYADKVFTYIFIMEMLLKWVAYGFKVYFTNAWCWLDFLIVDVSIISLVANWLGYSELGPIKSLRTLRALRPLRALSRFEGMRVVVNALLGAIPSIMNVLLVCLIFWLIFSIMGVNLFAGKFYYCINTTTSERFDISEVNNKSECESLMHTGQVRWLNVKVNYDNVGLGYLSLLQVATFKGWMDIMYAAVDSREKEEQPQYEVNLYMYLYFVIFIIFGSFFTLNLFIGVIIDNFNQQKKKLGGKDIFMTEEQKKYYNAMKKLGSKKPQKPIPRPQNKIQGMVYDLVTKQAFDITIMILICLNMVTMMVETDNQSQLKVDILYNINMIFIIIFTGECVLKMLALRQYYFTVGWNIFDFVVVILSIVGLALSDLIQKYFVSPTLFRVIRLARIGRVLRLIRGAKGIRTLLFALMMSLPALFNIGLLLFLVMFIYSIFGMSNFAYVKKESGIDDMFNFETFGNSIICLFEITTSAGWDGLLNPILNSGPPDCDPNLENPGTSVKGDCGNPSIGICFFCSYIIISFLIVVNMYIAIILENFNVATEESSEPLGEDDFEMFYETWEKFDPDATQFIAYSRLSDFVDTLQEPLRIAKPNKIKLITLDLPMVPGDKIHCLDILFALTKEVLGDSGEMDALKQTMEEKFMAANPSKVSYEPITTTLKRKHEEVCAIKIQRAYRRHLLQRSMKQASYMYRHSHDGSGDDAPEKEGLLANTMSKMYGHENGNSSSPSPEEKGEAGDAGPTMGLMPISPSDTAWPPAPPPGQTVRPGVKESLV
human Nav1.7 voltage-gated sodium channel (human), sequence (Q15858 whole entry): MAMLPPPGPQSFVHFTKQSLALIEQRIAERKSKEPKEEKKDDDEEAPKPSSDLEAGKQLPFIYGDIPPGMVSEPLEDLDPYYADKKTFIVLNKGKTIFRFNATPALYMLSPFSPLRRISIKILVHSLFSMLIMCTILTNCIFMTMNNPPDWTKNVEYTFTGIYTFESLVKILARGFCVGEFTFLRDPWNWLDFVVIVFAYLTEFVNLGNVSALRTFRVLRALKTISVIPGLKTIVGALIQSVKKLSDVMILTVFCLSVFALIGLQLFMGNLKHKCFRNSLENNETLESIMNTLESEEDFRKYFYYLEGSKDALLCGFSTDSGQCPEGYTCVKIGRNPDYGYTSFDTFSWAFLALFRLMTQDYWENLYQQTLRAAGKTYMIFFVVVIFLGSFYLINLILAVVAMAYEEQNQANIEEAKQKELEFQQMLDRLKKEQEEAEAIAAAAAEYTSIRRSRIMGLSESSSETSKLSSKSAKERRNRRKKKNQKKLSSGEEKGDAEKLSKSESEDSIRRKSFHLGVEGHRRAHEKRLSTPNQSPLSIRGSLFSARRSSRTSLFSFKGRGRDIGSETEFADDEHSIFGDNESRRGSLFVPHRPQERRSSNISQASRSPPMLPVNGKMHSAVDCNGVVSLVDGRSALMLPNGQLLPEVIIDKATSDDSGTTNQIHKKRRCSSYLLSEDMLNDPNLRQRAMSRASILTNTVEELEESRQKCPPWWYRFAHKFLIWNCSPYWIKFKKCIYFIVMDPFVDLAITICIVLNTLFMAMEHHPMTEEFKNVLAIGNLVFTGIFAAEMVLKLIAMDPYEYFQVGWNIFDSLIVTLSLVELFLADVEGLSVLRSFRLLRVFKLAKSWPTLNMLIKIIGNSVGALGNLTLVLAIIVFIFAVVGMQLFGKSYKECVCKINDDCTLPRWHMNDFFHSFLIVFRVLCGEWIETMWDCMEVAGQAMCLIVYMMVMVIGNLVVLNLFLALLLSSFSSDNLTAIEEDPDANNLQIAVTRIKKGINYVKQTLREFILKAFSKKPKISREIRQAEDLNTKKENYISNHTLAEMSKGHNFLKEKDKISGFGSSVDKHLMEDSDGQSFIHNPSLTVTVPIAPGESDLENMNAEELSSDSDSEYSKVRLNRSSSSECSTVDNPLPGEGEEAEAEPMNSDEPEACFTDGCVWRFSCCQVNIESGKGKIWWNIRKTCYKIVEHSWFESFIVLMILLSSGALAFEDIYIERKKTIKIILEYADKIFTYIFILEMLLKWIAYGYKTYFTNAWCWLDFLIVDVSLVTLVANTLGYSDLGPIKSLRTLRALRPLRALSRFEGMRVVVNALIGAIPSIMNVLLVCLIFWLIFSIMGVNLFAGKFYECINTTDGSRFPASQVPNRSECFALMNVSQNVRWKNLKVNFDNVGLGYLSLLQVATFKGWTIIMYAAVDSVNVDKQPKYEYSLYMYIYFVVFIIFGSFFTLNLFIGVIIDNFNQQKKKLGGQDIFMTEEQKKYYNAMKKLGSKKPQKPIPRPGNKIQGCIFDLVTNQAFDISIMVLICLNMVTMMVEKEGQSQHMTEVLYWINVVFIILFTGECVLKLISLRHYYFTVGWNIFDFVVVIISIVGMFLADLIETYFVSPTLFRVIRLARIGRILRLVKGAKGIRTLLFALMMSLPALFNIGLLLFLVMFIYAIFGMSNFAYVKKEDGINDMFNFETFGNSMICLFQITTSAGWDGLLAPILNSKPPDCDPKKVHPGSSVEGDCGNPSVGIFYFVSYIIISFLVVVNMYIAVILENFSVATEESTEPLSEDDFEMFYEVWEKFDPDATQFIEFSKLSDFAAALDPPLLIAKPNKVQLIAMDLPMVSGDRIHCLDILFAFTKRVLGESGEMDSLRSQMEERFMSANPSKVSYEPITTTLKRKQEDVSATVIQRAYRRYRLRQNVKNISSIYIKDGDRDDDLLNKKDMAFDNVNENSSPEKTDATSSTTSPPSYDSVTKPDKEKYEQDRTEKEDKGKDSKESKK
human voltage-gated sodium channel Nav1.4 (human), sequence (P35499 whole entry): as the sequence (P35499 whole entry) above
human voltage-gated sodium channel Nav1.7 (human), sequence (Q15858 whole entry): as the sequence (Q15858 whole entry) above

Regarding “[Ala5;Phe6;K(Ac-Pra)13;Arg28]GpTx-1(1-34) (peptide)”, the IWQ Use Nav1.7 IC50 (IonWorks Quattro electrophysiology) in assay [1] stood at 0.78 µM. This molecule had an IWQ Use Nav1.5 IC50 (IonWorks Quattro electrophysiology) in assay [2] of 24.6 µM. In assay [3], this molecule gave an IWQ Use Nav1.3 IC50 (IonWorks Quattro electrophysiology) of 0.25 µM. The same molecule showed an IWQ Use Nav1.4 IC50 (IonWorks Quattro electrophysiology) in assay [4] of 18 µM.
In turn, DCLGALRKCEPD[Pra]DKCCRPNLVCSRLHRWCKYVF (ends and bridges not checked) [[Ala5;Leu6,26;Glu10;Pra13;Arg28]GpTx-1(1-34)] registered a Nav1.7 Use IC50 (µM), electrophysiology by PatchXpress in assay [5] of 0.013 µM. Further, the Nav1.4 Use IC50 (µM), electrophysiology by PatchXpress in assay [6] was more than 10 µM. In assay [1], this molecule showed an IWQ Use Nav1.7 IC50 (IonWorks Quattro electrophysiology) of 0.7 µM. In assay [7], this molecule returned a Nav1.5 Use IC50 (µM), electrophysiology by PatchXpress of more than 10 µM. The molecule also displayed an IWQ Use Nav1.5 IC50 (IonWorks Quattro electrophysiology) in assay [2] of more than 50 µM. The IWQ Use Nav1.3 IC50 (IonWorks Quattro electrophysiology) in assay [3] came to 1.4 µM. The molecule further displayed an IWQ Use Nav1.4 IC50 (IonWorks Quattro electrophysiology) in assay [4] of more than 50 µM.
Consider DCLG[Abu]LRKCIPDK(4‑Pen)DKCCRPNLVCSRTHEWCKYVF (ends and bridges not checked) [[2-Abu5;Leu6;K(4-Pen)13;Glu28]GpTx-1(1-34)], for which the IWQ Use Nav1.7 IC50 (IonWorks Quattro electrophysiology) in assay [1] came out at 1.8 µM. For the same molecule, the IWQ Use Nav1.5 IC50 (IonWorks Quattro electrophysiology) in assay [2] was more than 5 µM. Further, the IWQ Use Nav1.3 IC50 (IonWorks Quattro electrophysiology) in assay [3] was 4.1 µM. The molecule further registered an IWQ Use Nav1.4 IC50 (IonWorks Quattro electrophysiology) in assay [4] of more than 5 µM.
